Experimental data from patent JP2012034697A.

Molecular target: Aβ(βアミロイドペプチド) (UniProt P05067)
Experiment: BIAcore

Chain of UniProt P05067 (P05067 672-713 limits assumed): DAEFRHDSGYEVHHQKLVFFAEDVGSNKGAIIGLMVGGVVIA

マウスモノクローナル抗体3D6 (antibody) was tested. Which Kd did it give?
The Kd was 0.88 nM.
